Laboratory results reported in patent US9555076B2, “Neuregulin based methods and compositions for treating cardiovascular diseases” (Zensun (Shanghai) Science & Technology, Co., Ltd., priority 2002, dated 2017).

Experiments:
Type in all cases: in vivo, SD rat
[1] = test system: toxic myocarditis caused by Adriamycin in rat; assay: Myocardial pathologic scoring, Adriamycin rat model; conditions: Adriamycin model
Protocol: Heart was extirpated after thoracotomy (auricle should be reserved), the heart weight was measured after dried with absorbent paper, ratio of heart weight/body weight calculated; outer diameter of the heart was measured at ½ site of the vertically standing heart; medium part of the left ventricle was crosswise cut open, maximal thickness of free wall of the left ventricle measured; the heart was fixed with 10% formaldehyde, paraffin embedded and HE stained, observation of the myocardial structure carried out under optic microscope, give out pathologic score.
Scoring could be performed between grade 1 and grade 2 or between grade 2 and grade 3, e.g. grade 1.5, grade 2.5 etc. 6.3.3.3 Determination of Hemodynamics Index

[2] = test system: toxic myocarditis caused by Adriamycin in rat; assay: Survival rate, Adriamycin caused toxic myocarditis rat model
Protocol: rhNRG-1β was injected into the tail vein within 24 hours after the first injection of Adriamycin, the injection of rhNRG-1 β was carried out once daily for 10 days. Dosage was adjusted according to the body weight, volume of the drug administered was 0.2 ml/100 g.
Based on the <<Guidance Principle of New Drug Preclinical Experiment>>, 3.3 mg/kg of Adriamycin was injected into the tail vein, once per week for consecutive 4 injections, establishing Adriamycin caused toxic myocarditis rat model.
rhNRG-1 β was injected into the tail vein within 24 hours after the first injection of Adriamycin. During the experiment, animal survival was dynamically monitored, heart function indexes (maximal rate of pressure increase within left ventricle, […], maximal rate of pressure decrease within left ventricle, −dp/dt, systolic end pressure of left ventricle LVPmax, diastolic end pressure of left ventricle LVPmin) were monitored at the 5th week. Section was made from the heart tissue and pathological changes examined.
Situation of survival was recorded weekly and the survival rate of the various experimental groups was calculated. Survival rate (%)=survival animal number/number of experimental animals×100.

[3] = test system: heart failure in rat caused by ligation of coronary artery; assay: Nagar-Oslen staining of ischemic hypoxic myocardium
Description: After fixed with 10% formaldehyde, myocardium of the rat was longitudinally cut with equal distance into 3 slices, conventionally embedded with paraffin, section made, HE stained, image analysis for area of fibrotic region of the heart, counted the number of capillary in the fibrotic lesion (counting unit: piece/mm^2); Nagar-Oslen stained, studied the size of ischemic hypoxic region in the myocardium.
In Nagar-Oslen stained section, normal myocardium stained with light yellow color, while ischemic hypoxic area stained deeper with reddish color. Ischemic hypoxic changes could be analyzed with this method and comparison of qualitative and semi-quantitative test could be made.

B1: rhNRG-1 β: Recombinant human neuregulin fragment of 61 amino acid (SEQ ID NO:4), 3 disulfide bonds, expressed in E. coli (protein, listed as Homo sapiens)
chain: SHLVKCAEKEKTFCVNGGECFMVKDLSNPSRYLCKCPNEFTGDRCQNYVMASFYKAEELYQ
modifications: disulfide (positions not given here)
For B1, the Pathologic scoring ([1]; 10 μg/kg iv qd × 10 d, (I)) was 1.83 ± 0.41, the Pathologic scoring ([1]; 10 μg/kg iv qd × 10 d, (II)) was 2.167 ± 0.516 and the Pathologic scoring ([1]; 20 μg/kg iv qd × 10 d, (I)) was 1.17 ± 0.93. The Pathologic scoring ([1]; 20 μg/kg iv qd × 10 d, (II)) was 1.667 ± 0.931, the “myocardial pathologic score of the section shown in FIG. 20” value (“myocardial pathologic score” below) ([1]; 20 μg/kg testing drug group) was 1 and the Pathologic scoring ([1]; 40 μg/kg iv qd × 10, (II)) was 0.583 ± 0.204. The Pathologic scoring ([1]; 40 μg/kg iv qd × 10 d, (I)) was 0.33 ± 0.41, the “myocardial pathologic score” value ([1]; 40 μg/kg testing drug group) was 1 and the “myocardial pathologic score” value ([1]; 130 μg/kg testing drug group (so in the source)) was 1.5. It also gave a survival rate ([2]; Adriamycin 3.3 mg/kg weekly × 4, 10 μg/kg iv qd 10 days) of 60%, a survival rate ([2]; Adriamycin 3.3 mg/kg weekly × 4, 20 μg/kg iv qd 10 days) of 90% and a survival rate ([2]; Adriamycin 3.3 mg/kg weekly × 4, 40 μg/kg iv qd 10 days) of 85%. The “red stained (ischemic hypoxic) tissue, Nagar-Oslen stain” value ([3]; 5 μg/kg) was “patchy distribution”, the “red stained (ischemic hypoxic) tissue, Nagar-Oslen stain” value ([3]; 10 μg/kg) was “patchy distribution” and the “red stained (ischemic hypoxic) myocardial cells, Nagar-Oslen stain” value ([3]; 20 μg/kg) was “punctuate distribution”.
